Reference: the supplement of paper PMC9170038

System: MS2 coat protein
Test: apparent KD of MS2 coat protein; higher = weaker reporter binding
Conditions: Eterna round: R107
Outline: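 With or without constant ligand, designed RNA switches in 100 mM Tris-HCl pH 7.5, 80 mM KCl and 4 mM MgCl2 were titrated with SNAP-549-labelled MS2 coat protein. Concentrations went up in twofold steps from 0.7 or 1.5 nM to 3 µM. The switches had been transcribed on-chip from Illumina sequencing clusters, and apparent KD is the per-design median of normalised cluster binding-curve fits.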

[1] = input ligand: theophylline 20 uM
[2] = input ligand: theophylline 2 mM
[3] = input ligand: tryptophan 2.4 mM

GGAGGUGAGAGAAGGAGCGGAAGUUUCGUUACAACAUGAGGAUCACCCAUGUAACGUUUAGUCCAGGUAGGUCGCUCUCGGGCGG [jbbgmullin]
apparent KD of MS2 coat protein (input ligand: arginine 13.2 mM): 0.0192 µM | apparent KD of MS2 coat protein (input ligand: none): 0.0163 µM | apparent KD of MS2 coat protein [1]: 0.0252 µM | apparent KD of MS2 coat protein [2]: 0.0307 µM | apparent KD of MS2 coat protein [3]: 0.0269 µM

GGAUAGGACAGAAGGAGCGACAUGAGGAUCACCCAUGUGGAUCAACGACGAAAGUCGCCAUGUCAGGUAGGUCGCUGUCCUAUCG [ArgXB 8 #MS2Gate #StaticStem #MS2LeftOffAptamer]
apparent KD of MS2 coat protein (input ligand: arginine 13.2 mM): 0.139 µM | apparent KD of MS2 coat protein (input ligand: none): 0.511 µM | apparent KD of MS2 coat protein [1]: 0.549 µM | apparent KD of MS2 coat protein [2]: 0.969 µM | apparent KD of MS2 coat protein [3]: 0.918 µM

GGAUAUAGGGAACCGUAUCCGAAACCUGAAGGAGCGGCCGAAAGGCCAGGUAGGUCGCGGGAACAUGAGGAUCACCCAUGUAUUC [dancer]
apparent KD of MS2 coat protein (input ligand: arginine 13.2 mM): 0.0311 µM | apparent KD of MS2 coat protein (input ligand: none): 0.0573 µM | apparent KD of MS2 coat protein [1]: 0.0718 µM | apparent KD of MS2 coat protein [2]: 0.0592 µM | apparent KD of MS2 coat protein [3]: 0.0554 µM

GGAUGCGGCACGGCCGCCACUGCGGUGGUGUGACAUGAGGAUCACCCAUGUUGUCAUGCGGCCCUUAGGACCGGGUGGCGUUUCC [#1 Exclusion - Tryptophan B Attempt #20 (HarryS)]
apparent KD of MS2 coat protein (input ligand: arginine 13.2 mM): 0.038 µM | apparent KD of MS2 coat protein (input ligand: none): 0.0567 µM | apparent KD of MS2 coat protein [1]: 0.0736 µM | apparent KD of MS2 coat protein [2]: 0.0667 µM | apparent KD of MS2 coat protein [3]: 0.0629 µM

GGAUUAGAGGCGGCCGCCACUGGAACAUGAGGAUCACCCAUGUAGUGCAUGUAAUUAACCUCGAUCAGGACCGGGCCGAUAGUCA [Exclusion - Tryptophan B / A]
apparent KD of MS2 coat protein (input ligand: arginine 13.2 mM): 0.0519 µM | apparent KD of MS2 coat protein [1]: 0.0852 µM | apparent KD of MS2 coat protein [2]: 0.0672 µM

GGCACAUAGUCGGCCGCCACUAGGCUGUAGUGGGAGGACAUGAGGAUCACCCAUGUAUUUGGUACUAGGACCGGGACUAUGUGCC [Lion]
apparent KD of MS2 coat protein (input ligand: arginine 13.2 mM): 0.0623 µM | apparent KD of MS2 coat protein (input ligand: none): 0.191 µM | apparent KD of MS2 coat protein [1]: 0.259 µM | apparent KD of MS2 coat protein [2]: 0.274 µM | apparent KD of MS2 coat protein [3]: 0.258 µM

GGCACAUAGUCGGCCGCCACUAGUAUAAGAUGGAAUAACAUGAGGAUCACCCAUGUAAAAGGGACUAGGACCGGGACUAUGUGCC [Rat]
apparent KD of MS2 coat protein (input ligand: arginine 13.2 mM): 0.0122 µM | apparent KD of MS2 coat protein (input ligand: none): 0.013 µM | apparent KD of MS2 coat protein [1]: 0.0182 µM | apparent KD of MS2 coat protein [2]: 0.0154 µM | apparent KD of MS2 coat protein [3]: 0.0125 µM

GGCACAUAGUCGGCCGCCACUAGUGGGAAAUGGGAGAACAUGAGGAUCACCCAUGUAUAAUAGCCUAGGACCGGGACUAUGUGCC [Elk]
apparent KD of MS2 coat protein (input ligand: arginine 13.2 mM): 0.0642 µM | apparent KD of MS2 coat protein (input ligand: none): 0.188 µM | apparent KD of MS2 coat protein [1]: 0.227 µM | apparent KD of MS2 coat protein [2]: 0.113 µM | apparent KD of MS2 coat protein [3]: 0.0553 µM

GGCACAUAGUCGGCCGCCACUAGUGGGAAAUGGGAGAACAUGAGGAUCACCCAUGUUGCGUAGCCUAGGACCGGGACUAUGUGCC [Hippopotamus]
apparent KD of MS2 coat protein (input ligand: arginine 13.2 mM): 0.0291 µM | apparent KD of MS2 coat protein (input ligand: none): 0.0301 µM | apparent KD of MS2 coat protein [1]: 0.0376 µM | apparent KD of MS2 coat protein [2]: 0.0332 µM | apparent KD of MS2 coat protein [3]: 0.035 µM

GGCACCAGGAGAAGGAGCGUGAAGACAUGAGGAUCACCCAUGUAGAGGCCCGGACAGGGUUCGCAGGUAGGUCGCUCCUGGUGCC [#1 Same State - Arginine B Attempt #10 (HarryS)]
apparent KD of MS2 coat protein (input ligand: arginine 13.2 mM): 0.0204 µM | apparent KD of MS2 coat protein (input ligand: none): 0.00829 µM | apparent KD of MS2 coat protein [1]: 0.245 µM | apparent KD of MS2 coat protein [2]: 0.122 µM | apparent KD of MS2 coat protein [3]: 0.0472 µM

GGCCAUGGAAACAUGGCGGCGGCAUAAGCGCGAGGACCGGUACGGCCGCCACUCGGGCGACAUGAGGAUCACCCAUGUUCCUCAU [ETA NP+V+V2 #23 Same Structure]
apparent KD of MS2 coat protein (input ligand: arginine 13.2 mM): 0.105 µM | apparent KD of MS2 coat protein [1]: 0.413 µM | apparent KD of MS2 coat protein [2]: 0.529 µM

GGCCCUGCGAGCGCUCGCAGGGCCGCGGAUACCAGCGAGGUCCAUCGCCCUUGGCAGCCGAACAUGAGGAUCACCCAUGUCGGUU [#1 Same State - Theophylline A Attempt #12 (HarryS)]
apparent KD of MS2 coat protein (input ligand: arginine 13.2 mM): 0.00598 µM | apparent KD of MS2 coat protein (input ligand: none): 0.0112 µM | apparent KD of MS2 coat protein [1]: 0.0123 µM | apparent KD of MS2 coat protein [2]: 0.0144 µM | apparent KD of MS2 coat protein [3]: 0.00996 µM

GGCCGUGCGAGCGCUCGCGUGGCCGCGGAUACCAGCGAGGUCCAUCGCCCUUGGCAGCCGAACAUGAGGAUCACCCAUGUCGGUA [#1 Same State - Theophylline A Attempt #14 (HarryS)]
apparent KD of MS2 coat protein (input ligand: arginine 13.2 mM): 0.00893 µM | apparent KD of MS2 coat protein (input ligand: none): 0.011 µM | apparent KD of MS2 coat protein [1]: 0.0152 µM | apparent KD of MS2 coat protein [2]: 0.0173 µM | apparent KD of MS2 coat protein [3]: 0.00977 µM

GGCCUGUGGAGCGAUACCAGCUUGAGUGUACUGGCCAGGUACAUGAGGAUCACCCAUGUAAGCCCUUGGCAGCGCUCCAGAGGCC [#1 Exclusion - Theophylline B Attempt #18 (HarryS)]
apparent KD of MS2 coat protein (input ligand: arginine 13.2 mM): 0.00941 µM | apparent KD of MS2 coat protein (input ligand: none): 0.0121 µM | apparent KD of MS2 coat protein [1]: 0.0164 µM | apparent KD of MS2 coat protein [2]: 0.0567 µM | apparent KD of MS2 coat protein [3]: 0.0132 µM

GGCCUGUGGUGCGAUACCAGCUUGAGUGUACUGGCCAGGUACAUGAGGAUCACCCAUGUAAGCCCUUGGCAGCGCGUCAGAGGCC [#1 Exclusion - Theophylline B Attempt #19 (HarryS)]
apparent KD of MS2 coat protein (input ligand: arginine 13.2 mM): 0.0135 µM | apparent KD of MS2 coat protein (input ligand: none): 0.00882 µM | apparent KD of MS2 coat protein [1]: 0.0169 µM | apparent KD of MS2 coat protein [2]: 0.0303 µM | apparent KD of MS2 coat protein [3]: 0.0121 µM

GGCCUUGCGGGCGCCCGCAAGGCCGCGGAUACCAGCGAGGUCCAUCGCCCUUGGCAGCCGAACAUGAGGAUCACCCAUGUCGGUU [Same State - Theophylline A Attempt #6 (HarryS)]
apparent KD of MS2 coat protein (input ligand: arginine 13.2 mM): 0.00984 µM | apparent KD of MS2 coat protein [1]: 0.0137 µM | apparent KD of MS2 coat protein [3]: 0.0113 µM

GGCGCGCGCCAACAUGAGGAUCACCCAUGUCGAGGACCGGUACGGCCGCCACUCGAACGAGUGAAGCGCGCGCGCGGAGCGCCGC [Taa]
apparent KD of MS2 coat protein (input ligand: arginine 13.2 mM): 0.024 µM | apparent KD of MS2 coat protein (input ligand: none): 0.0371 µM | apparent KD of MS2 coat protein [1]: 0.0478 µM | apparent KD of MS2 coat protein [2]: 0.047 µM | apparent KD of MS2 coat protein [3]: 0.0601 µM

GGCGCGGUGAUGGAAGCCGAACGCUAGGUACGAGGACCGGUACGGCCGCCACUCGUAGUCCUGGGACAUGAGGAUCACCCAUGUA [Same State Trp A GF20]
apparent KD of MS2 coat protein (input ligand: arginine 13.2 mM): 0.0393 µM | apparent KD of MS2 coat protein (input ligand: none): 0.119 µM | apparent KD of MS2 coat protein [1]: 0.109 µM | apparent KD of MS2 coat protein [2]: 0.096 µM | apparent KD of MS2 coat protein [3]: 0.0512 µM

GGCGGACUUAUAGAUACCAGCACAUGAGGAUCACCCAUGUAUGGUCGCACCUCAGUCCUGUGCCCUUGGCAGCUAUAAUAGAUUU [Esxeanbi]
apparent KD of MS2 coat protein (input ligand: arginine 13.2 mM): 0.0208 µM | apparent KD of MS2 coat protein [1]: 0.0498 µM | apparent KD of MS2 coat protein [3]: 0.0164 µM
